Assay results reported in PMC12518824 (Nature Communications, 2025).
Blank lines part the entries; values can stand above or below the binder they belong to.

How the values were obtained:
[1] = target: T1, syntaxin-4 ΔTM (residues 1–275) (human, UniProt Q12846 1-275); test: FRET or BRET
T1 sequence (looked up): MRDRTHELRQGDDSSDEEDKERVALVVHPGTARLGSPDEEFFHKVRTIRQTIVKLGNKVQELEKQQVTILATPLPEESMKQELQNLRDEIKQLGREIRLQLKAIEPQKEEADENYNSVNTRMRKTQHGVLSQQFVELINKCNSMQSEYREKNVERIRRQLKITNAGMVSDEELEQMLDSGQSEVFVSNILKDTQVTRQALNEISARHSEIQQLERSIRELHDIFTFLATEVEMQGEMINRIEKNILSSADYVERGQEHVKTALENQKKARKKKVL

[2] = target: T2, Munc13-4 (full-length human, recombinant) (human, UniProt Q70J99 1-1090); test: pull-down
T2 sequence (looked up): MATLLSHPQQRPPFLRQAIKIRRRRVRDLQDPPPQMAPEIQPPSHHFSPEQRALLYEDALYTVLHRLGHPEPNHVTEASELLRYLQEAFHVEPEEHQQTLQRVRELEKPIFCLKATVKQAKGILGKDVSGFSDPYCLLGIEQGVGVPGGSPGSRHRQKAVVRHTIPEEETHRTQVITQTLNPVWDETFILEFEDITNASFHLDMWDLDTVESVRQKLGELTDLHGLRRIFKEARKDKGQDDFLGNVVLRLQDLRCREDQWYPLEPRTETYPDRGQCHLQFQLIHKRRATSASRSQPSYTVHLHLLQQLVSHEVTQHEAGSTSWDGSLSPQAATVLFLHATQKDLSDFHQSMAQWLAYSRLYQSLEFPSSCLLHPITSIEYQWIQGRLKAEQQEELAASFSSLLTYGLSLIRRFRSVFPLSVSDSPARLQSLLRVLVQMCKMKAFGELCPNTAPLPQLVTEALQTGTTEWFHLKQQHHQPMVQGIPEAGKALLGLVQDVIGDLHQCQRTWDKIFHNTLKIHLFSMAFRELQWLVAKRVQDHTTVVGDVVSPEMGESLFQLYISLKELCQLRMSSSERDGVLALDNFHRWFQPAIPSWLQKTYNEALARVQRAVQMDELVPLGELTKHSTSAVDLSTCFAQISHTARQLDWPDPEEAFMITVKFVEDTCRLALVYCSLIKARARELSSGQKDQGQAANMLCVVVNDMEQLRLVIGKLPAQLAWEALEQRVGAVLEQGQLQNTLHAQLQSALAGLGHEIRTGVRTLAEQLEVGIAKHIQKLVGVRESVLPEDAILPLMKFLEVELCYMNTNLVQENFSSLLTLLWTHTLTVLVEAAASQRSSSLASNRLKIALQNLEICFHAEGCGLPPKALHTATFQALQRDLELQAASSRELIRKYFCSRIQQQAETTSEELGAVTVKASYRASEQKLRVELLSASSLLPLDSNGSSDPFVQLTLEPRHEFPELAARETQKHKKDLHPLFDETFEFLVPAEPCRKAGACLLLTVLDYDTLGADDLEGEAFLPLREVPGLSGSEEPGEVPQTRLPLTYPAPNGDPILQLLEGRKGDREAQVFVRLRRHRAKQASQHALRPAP

binding result [1]: binds
B1: VAMP-7 SNARE motif (residues 123–187, A131C) labeled with BODIPY FL (domain or fragment, human, UniProt P51809 123-187, looked up)
chain: LDKVMETQC(BODIPY FL)QVDELKGIMVRNIDLVAQRGERLELLIDKTENLVDSSVTFKTTSRNLARAMCMKNL

binding result [2]: binds
B2: GST-VAMP-7 SNARE motif (residues 123–187) (domain or fragment, human, UniProt P51809 123-187, looked up)
chain: LDKVMETQAQVDELKGIMVRNIDLVAQRGERLELLIDKTENLVDSSVTFKTTSRNLARAMCMKNL

binding result [2]: binds
B3: GST-Rab27a (full-length) (natural protein, human, UniProt P51159 1-221, looked up)
chain: MSDGDYDYLIKFLALGDSGVGKTSVLYQYTDGKFNSKFITTVGIDFREKRVVYRASGPDGATGRGQRIHLQLWDTAGQERFRSLTTAFFRDAMGFLLLFDLTNEQSFLNVRNWISQLQMHAYCENPDIVLCGNKSDLEDQRVVKEEEAIALAEKYGIPYFETSAANGTNISQAIEMLLDLIMKRMERCVDKSWIPEGVVRSNGHASTDQLSEEKEKGACGC
